Source: patent publication US20250297019A1 (Genentech, published 2025)
Blank lines part the entries; values can stand above or below the binder they belong to.

Tests used:
human CCR8 [1] = molecular target: T1, human CCR8 (human, UniProt P51685 1-355); assay: cell-based or functional assay
human CCR8 [2] = molecular target: T1, human CCR8; assay: cell-based or functional assay; remark: listed apart in the source
human CCR8 [3] = molecular target: T1, human CCR8; assay: cell-based or functional assay; remark: listed apart in the source
human CCR8 [4] = molecular target: T1, human CCR8; assay: cell-based or functional assay; remark: listed apart in the source
[5] = molecular target: T2, human Fc gamma receptor IIIa F158, GST fusion (human, UniProt P08637 17-208); assay: ELISA, captured GST-FcgR3a
T2 construct: extracellular domain; also called GST-FcgR3a.F158; FcgR3a.F158 protein; not shown: Gly-6xHis-glutathione S-transferase (GST) tag at the C-terminus
Protocol: (§1) Briefly, an anti-GST antibody was coated on Nunc MAXISORP™ plates. GST-FcgR3a.V158 and GST-FcgR3a.F158 were captured at 500 ng/mL. Plates were then washed and then serially diluted anti-CCR8 antibodies starting at 100 μg/mL were incubated on the plate for 1 hour at room temperature. Plates were washed and bound antibody was detected by an HRP-conjugated anti-human IgG secondary antibody. Absorbance at 450 nm was measured by a plate reader. The data were fitted using a 4-parameter logistic curve in SOFTM^AX® Pro.

[6] = molecular target: T3, human Fc gamma receptor IIIa V158, GST fusion (human, UniProt P08637 17-208); assay: ELISA, captured GST-FcgR3a
T3 construct: extracellular domain; also called GST-FcgR3a.V158; FcgR3a.V158 protein; not shown: Gly-6xHis-glutathione S-transferase (GST) tag at the C-terminus
Protocol: as §1

mouse CCR8 = molecular target: T4, mouse CCR8 (mouse, UniProt P56484 1-353); assay: assay not described ('in vitro assays')
T4 construct: format of the KD assay of the anti-murine antibody is not described; also called mCCR8; murine CCR8
T4 sequence: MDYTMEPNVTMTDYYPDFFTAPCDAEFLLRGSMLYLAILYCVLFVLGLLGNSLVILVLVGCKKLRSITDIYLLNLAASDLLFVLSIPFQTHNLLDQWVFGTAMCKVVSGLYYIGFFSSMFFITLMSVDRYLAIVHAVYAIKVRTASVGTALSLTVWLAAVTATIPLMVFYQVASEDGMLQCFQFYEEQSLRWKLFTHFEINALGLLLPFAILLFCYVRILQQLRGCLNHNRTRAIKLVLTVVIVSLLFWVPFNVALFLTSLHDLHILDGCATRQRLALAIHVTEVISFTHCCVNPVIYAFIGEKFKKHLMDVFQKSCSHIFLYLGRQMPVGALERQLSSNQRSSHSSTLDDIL

cynomolgus monkey CCR8 = molecular target: T5, cynomolgus monkey CCR8 (cynomolgus monkey, UniProt O97665 1-356 (rhesus entry)); assay: competition of unlabelled antibody with a fixed concentration of the 125I-labelled same antibody on CHO cells stably expressing cyno CCR8 (CHO-cynoCCR8), filter plates, gamma counting
T5 construct: On CHO cells stably expressing cyno CCR8 or on cyno blood Treg cells; also called cyno CCR8; cynoCCR8
T5 sequence (O97665 other isoform, or with tags, fused parts or gaps): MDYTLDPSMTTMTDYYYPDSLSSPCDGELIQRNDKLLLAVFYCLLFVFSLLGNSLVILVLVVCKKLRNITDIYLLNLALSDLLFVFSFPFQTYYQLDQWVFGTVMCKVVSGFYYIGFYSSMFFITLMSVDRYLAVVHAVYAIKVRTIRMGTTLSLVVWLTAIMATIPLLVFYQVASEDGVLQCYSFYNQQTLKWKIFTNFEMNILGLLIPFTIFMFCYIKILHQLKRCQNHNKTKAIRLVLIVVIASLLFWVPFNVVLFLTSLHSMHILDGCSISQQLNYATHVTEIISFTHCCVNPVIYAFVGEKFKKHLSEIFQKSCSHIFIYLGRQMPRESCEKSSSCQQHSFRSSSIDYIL

T2 sequence (P08637 17-208): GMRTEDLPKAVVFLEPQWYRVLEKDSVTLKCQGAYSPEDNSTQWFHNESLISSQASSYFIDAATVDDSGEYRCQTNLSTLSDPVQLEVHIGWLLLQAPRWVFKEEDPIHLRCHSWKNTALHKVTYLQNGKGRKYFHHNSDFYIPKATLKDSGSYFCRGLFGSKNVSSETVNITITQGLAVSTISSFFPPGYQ
T3 sequence (P08637 17-208 F176V): as the sequence (P08637 17-208) above, with F160V counted along it

ADCC EC50 (calcein release; NK-92_F158 effector cells, CHO/hCCR8.Gna15 target cells) (human CCR8 [1]): 0.02 nM
B1: hu.Ab5.H1L1 (antibody, human IgG1, V domains shown)
VH: EQQLLESGGGLVQPGGSLRLSCAVSGIDLSTYAMGWVRQAPGKGLEWIGLIHRSGRTYYATWAKGRFTISKDSSKTTVYLQMNSLRAEDTAVYFCTRSYPDYSATASIWGPGTTVTVSS
VL: DIQVTQSPSSLSASVGDRVTITCQASENIANALAWYQQKPGKPPKFLIYGASNLASGVPSRFSGSGSGTDFTFTISSLQPEDIATYYCQQAYYGNSFVEGTFGGGTKVEIK

ADCC EC50 (calcein release; NK-92_F158 effector cells, CHO/hCCR8.Gna15 target cells) (human CCR8 [1]): 0.08 nM | IC50 of CCL1 blocking (Ca2+ influx, CHO/hCCR8.Gna15 cells, 20 nM CCL1) (human CCR8 [2]): 57.9 nM
B2: hu.Ab4.H1L1 (antibody, human IgG1, V domains shown)
VH: EQQLLESGGGLVQPGGSLRLSCAVSGFSLSNYAMIWVRQAPGKGLEWVGTISLGGYTYYANWAKGRFTISKDSSKTTVYLQMNSLRAEDTAVYFCARARWSTDSAIYTYAFDPWGPGTLVTVSS
VL: DYQMTQSPSSLSASVGDRVTITCQASQSISSYLSWYQQKPGKRPKLLIYKASTLASGVPSRFSGSGSGTDFTLTISSLQPEDFATYYCQQGYTSSNIDNIFGGGTKVEIK

IC50 of ligand blocking (Ca2+ influx, 20 nM CCL1) (human CCR8 [3]): 57.9 nM | ADCP EC50, macrophages of donor HR/FF (FIG. 14A) (human CCR8 [4]): 0.35 nM | ADCP EC50, macrophages of donor RR/FF (FIG. 14B) (human CCR8 [4]): 0.81 nM | ADCP EC50, macrophages of donor RR/VF (FIG. 14D) (human CCR8 [4]): 0.41 nM
B3: hu.Ab4.H12L3 (antibody, human IgG1, kappa)
heavy: not shown
light: DYQMTQSPSSLSASVGDRVTITCQASQSISSYLSWYQQKPGKAPKLLIYKASTLASGVPSRFSGSGSGTDFTLTISSLQPEDFATYYCQQGYTSSNIDNIFGGGTKVEIKRTVAAPSVFIFPPSDEQLKSGTASVVCLLNNFYPREAKVQWKVDNALQSGNSQESVTEQDSKDSTYSLSSTLTLSKADYEKHKVYACEVTHQGLSSPVTKSFNRGEC

fold increase in binding potency over the fucosylated counterpart [5]: ~10 fold | fold increase in binding potency over the fucosylated counterpart [6]: ~10 fold | ADCP EC50, macrophages of donor HR/FF (FIG. 14A) (human CCR8 [4]): 0.025 nM | ADCP EC50, macrophages of donor HR/FF (FIG. 14E) (human CCR8 [4]): 0.035 nM | ADCP EC50, macrophages of donor HR/VF (FIG. 14C) (human CCR8 [4]): 0.017 nM | ADCP EC50, macrophages of donor RR/FF (FIG. 14B) (human CCR8 [4]): 0.12 nM | ADCP EC50, macrophages of donor RR/VF (FIG. 14D) (human CCR8 [4]): 0.079 nM
B4: Afuc.hu.Ab4.H12L3 (antibody, human IgG1, kappa)
heavy: not shown
light: B3 light
modifications: afucosylated Fc N-glycan (position Asn 299 as printed); about 80% to about 95% afucosylation
notes: also called afucosylated hu.Ab4.H12L3; Afuc.Ab4.H12L3

Kd (mouse CCR8): 0.218 nM
B5: mouse surrogate anti-CCR8 mAb (antibody, mouse IgG2a, kappa, V domains shown)
VH: QSVKESGGRLVTPGGSLTLTCTVSRIDLNEYSMAWVRQAPGKGLEWIGYIDAGSGSAYYASWAKGRFTISKTSSTTVDLEMTTLTTEDTATYFCARDVYPGYTTGTNLGLWGPGTLVTVSS
VL: AAVLTQTPASVSAAVGGTVSISCRSSKSVYSNYLSWYQQKPGQPPKLLIYRASTLTPGVPSRFKGSGSGTQFSLTIRDVQSADAGSYYCAGGYSSGSDNTFGGGTKLEIKR
notes: Chimeric rabbit-derived murine IgG2a; also called Anti-mCCR8; anti-murine CCR8 antibody

fold increase in binding potency over the fucosylated counterpart [5]: ~10 fold | fold increase in binding potency over the fucosylated counterpart [6]: ~10 fold | ADCP EC50, macrophages of donor HR/FF (FIG. 14A) (human CCR8 [4]): 0.017 nM | ADCP EC50, macrophages of donor HR/FF (FIG. 14E) (human CCR8 [4]): 0.022 nM | ADCP EC50, macrophages of donor HR/VF (FIG. 14C) (human CCR8 [4]): 0.01 nM | ADCP EC50, macrophages of donor RR/FF (FIG. 14B) (human CCR8 [4]): 0.2 nM | ADCP EC50, macrophages of donor RR/VF (FIG. 14D) (human CCR8 [4]): 0.5 nM
B6: Afuc.hu.Ab5.H13L1 (antibody, human IgG1, kappa)
heavy: not shown
light: DIQVTQSPSSLSASVGDRVTITCQASENIANALAWYQQKPGKPPKFLIYGASNLASGVPSRFSGSGSGTDFTFTISSLQPEDIATYYCQQAYYGNSFVEGTFGGGTKVEIKRTVAAPSVFIFPPSDEQLKSGTASVVCLLNNFYPREAKVQWKVDNALQSGNSQESVTEQDSKDSTYSLSSTLTLSKADYEKHKVYACEVTHQGLSSPVTKSFNRGEC
modifications: afucosylated Fc N-glycan (position Asn 299 as printed); about 80% to about 95% afucosylation
notes: also called afucosylated hu.Ab5.H13L1; Afuc.Ab5.H13L1

IC50 (read off the curve) (cynomolgus monkey CCR8): ~0.04 nM
B7: hu.Ab5.H13L1 (antibody, human IgG1, kappa)
heavy: not shown
light: B6 light
notes: Fucosylated human IgG1 kappa; also called Ab5 variant; huCCR8 antibody hu.Ab5.H13L1 (hIgG1)

ADCC EC50 (calcein release; NK-92_F158 effector cells, CHO/hCCR8.Gna15 target cells) (human CCR8 [1]): 0.02 nM
B8: hu.Ab3.H1L1 (antibody, human IgG1, kappa, V domains shown)
VH: EQQLVESGGGLVQPGGSLRLSCAVSGFSLSSYAMSWVRQAPGKGLEWIGVISASGRIIYATWAKGRFTISKDSAKTSVYLQMNSLRDEDTAVYFCARGVPSYSLVMSDWGPGTTVTVSS
VL: EPVMTQSPATLSVSPGERATLSCQASQSISNALAWYQQKPGQPPRLLIYEVSKVASGVPARFSGSGSGTEFTLTISSLQSEDFAVYYCQSAYYGNSYVWGAFGQGTKVEIKR
